The labels stand for the following.
B1: POU domain, class 4, transcription factor 2, residues 256 to 327; numbered along this chain, Q12837 (parent)
chain: RDLEAFAERFKQRRIKLGVTQADVGSALANLKIPGVGSLSQSTICRFESLTLSHNNMIALKPILQAWLEEAE

This is an account of results in the Human Domainome abundance scans (Beltran et al. 2025).

± gives the uncertainty stated by the source.

The variants in the data set derive from B1. The experiment in a line: abundance fitness (aPCA) (normalised: wild type 0, dead -1); higher = more abundant; growth selection in yeast, the domain comes from the species named. The note with it: Homo sapiens.
Take G35R: the abundance fitness was -0.153 ± 0.1.

On to G35H, for which the abundance fitness was -0.528 ± 0.18.

In the case of G35E, the abundance fitness was -0.435 ± 0.19.

Take G35A: the abundance fitness was -0.323 ± 0.1.

Consider G35N, for which the abundance fitness is -0.116 ± 0.24.

In the case of F47M, the abundance fitness was -0.781 ± 0.17.

On to F47T, for which the abundance fitness was -0.922 ± 0.14.

Consider F47W, for which the abundance fitness is -0.836 ± 0.12.

Regarding F47D, the abundance fitness is -0.82 ± 0.35.

On to P34E, for which the abundance fitness was -0.036 ± 0.075.

With P34Q, the abundance fitness was -0.263 ± 0.1.

As to P34D, the abundance fitness is -0.221 ± 0.13.

In the case of P34W, the abundance fitness is -0.528 ± 0.12.

With P34S, the abundance fitness is -0.106 ± 0.054.

For P34C, the abundance fitness was -0.679 ± 0.19.

Regarding N55M, the abundance fitness was -0.253 ± 0.15.

As for N55V, the abundance fitness is -0.013 ± 0.1.

For N55W, the abundance fitness is -0.403 ± 0.083.

As for N55D, the abundance fitness was -0.009 ± 0.12.

With T20A, the abundance fitness was -0.195 ± 0.053.

Turning to T20M, the abundance fitness was -0.344 ± 0.14.

Turning to T20N, the abundance fitness was -0.559 ± 0.4.

For the variant T20S, the abundance fitness is -0.067 ± 0.045.

Turning to T20E, the abundance fitness was -0.325 ± 0.12.

T20V: the abundance fitness was -0.964 ± 0.22.

For the variant A59L, the abundance fitness is -0.091 ± 0.049.

In the case of A59V, the abundance fitness was -0.207 ± 0.074.

For A59Q, the abundance fitness is 0.062 ± 0.082.

A59H: the abundance fitness is -0.249 ± 0.11.

As for L50C, the abundance fitness is -0.029 ± 0.069.

For the variant L50K, the abundance fitness is -0.128 ± 0.25.

As to L50M, the abundance fitness was -0.003 ± 0.15.

L50P: the abundance fitness is -0.867 ± 0.12.

Regarding L50D, the abundance fitness was -0.196 ± 0.13.

Turning to K11A, the abundance fitness was -0.337 ± 0.064.

For K11G, the abundance fitness was -0.678 ± 0.093.

As to K11Q, the abundance fitness was -0.34 ± 0.13.

Turning to K11H, the abundance fitness was -0.901 ± 0.25.

In the case of G25N, the abundance fitness was -0.593 ± 0.26.

For the variant G25W, the abundance fitness is -0.116 ± 0.064.

Regarding G25Y, the abundance fitness was -0.404 ± 0.29.

Turning to G25C, the abundance fitness is 0.131 ± 0.14.

Take G25S: the abundance fitness is 0.166 ± 0.052.

Turning to K32L, the abundance fitness is -0.279 ± 0.065.

For the variant K32V, the abundance fitness is -0.021 ± 0.097.

With K32M, the abundance fitness is -0.215 ± 0.13.

Regarding S38T, the abundance fitness was -0.083 ± 0.082.

For the variant S38W, the abundance fitness is -0.209 ± 0.093.

Consider S38H, for which the abundance fitness is 0.104 ± 0.12.

Take S38K: the abundance fitness is -0.127 ± 0.082.

Consider S38D, for which the abundance fitness is -0.277 ± 0.12.

As to S38E, the abundance fitness was -0.127 ± 0.13.

For the variant S38Y, the abundance fitness was 0.026 ± 0.032.

S38C: the abundance fitness was -0.092 ± 0.077.

M57H: the abundance fitness is -0.547 ± 0.16.

Regarding M57G, the abundance fitness was -0.41 ± 0.075.

As for M57A, the abundance fitness was -0.306 ± 0.13.

For M57C, the abundance fitness was -0.251 ± 0.11.

Turning to M57F, the abundance fitness is -0.428 ± 0.26.

Turning to L3Y, the abundance fitness is -0.213 ± 0.11.

For the variant L3N, the abundance fitness is -0.382 ± 0.19.

As to L3D, the abundance fitness is -0.658 ± 0.29.

As for W67R, the abundance fitness is -0.755 ± 0.36.

In the case of E48S, the abundance fitness is -0.644 ± 0.11.

As to E48G, the abundance fitness is -0.594 ± 0.12.

On to I44D, for which the abundance fitness is -0.771 ± 0.4.

On to I44A, for which the abundance fitness was -1 ± 0.17.

Turning to I44R, the abundance fitness is -0.973 ± 0.22.

On to I44F, for which the abundance fitness was -0.913 ± 0.41.

As for I44L, the abundance fitness is -0.392 ± 0.087.

In the case of N30Q, the abundance fitness was -0.059 ± 0.067.

As to N30W, the abundance fitness was -0.315 ± 0.08.

Take N30P: the abundance fitness was -0.146 ± 0.054.

On to E4T, for which the abundance fitness was -0.002 ± 0.074.

For E4C, the abundance fitness is -0.273 ± 0.12.

Consider E4L, for which the abundance fitness was -0.165 ± 0.062.

Take E4Y: the abundance fitness amounted to 0.13 ± 0.12.

For the variant T43E, the abundance fitness was -0.574 ± 0.3.

For T43Q, the abundance fitness was -0.452 ± 0.17.

Consider T43G, for which the abundance fitness was -0.792 ± 0.1.

For the variant T43V, the abundance fitness is -0.01 ± 0.064.

Take T43A: the abundance fitness was -0.271 ± 0.074.

Regarding T43D, the abundance fitness was -0.114 ± 0.13.

As for Q65E, the abundance fitness amounted to 0.058 ± 0.092.

Consider F10V, for which the abundance fitness was -0.59 ± 0.16.

For F10G, the abundance fitness is -0.955 ± 0.17.

For S26D, the abundance fitness is -0.076 ± 0.12.

Take S26Q: the abundance fitness was -0.07 ± 0.095.

For the variant S26L, the abundance fitness amounted to 0.061 ± 0.054.

In the case of S26F, the abundance fitness is -0.032 ± 0.12.

Take L60D: the abundance fitness is -0.614 ± 0.21.

As to L60R, the abundance fitness was -0.607 ± 0.056.

L60F: the abundance fitness is -0.29 ± 0.14.

Turning to L60A, the abundance fitness was -0.147 ± 0.11.

For the variant N56G, the abundance fitness is -0.024 ± 0.13.

For N56P, the abundance fitness is -0.52 ± 0.082.

Regarding N56Q, the abundance fitness worked out at 0.275 ± 0.39.

Regarding N56R, the abundance fitness was -0.134 ± 0.084.

N56H: the abundance fitness turned out to be 0.128 ± 0.16.

As for H54L, the abundance fitness was -0.042 ± 0.049.

In the case of H54F, the abundance fitness is -0.086 ± 0.11.

On to H54N, for which the abundance fitness was -0.138 ± 0.1.

On to A5E, for which the abundance fitness was -0.329 ± 0.35.

As for A5I, the abundance fitness was -0.008 ± 0.35.

For the variant A5S, the abundance fitness is -0.167 ± 0.097.

For the variant A5L, the abundance fitness worked out at 0.017 ± 0.12.

Turning to A5R, the abundance fitness is -0.001 ± 0.068.

On to A5P, for which the abundance fitness was -0.277 ± 0.14.

For L68P, the abundance fitness was -0.589 ± 0.39.

As for L68Q, the abundance fitness is -0.107 ± 0.22.

Consider R14M, for which the abundance fitness is -0.725 ± 0.14.

For the variant R14I, the abundance fitness was -0.601 ± 0.31.

For the variant R14G, the abundance fitness is -1.07 ± 0.21.

Turning to R14P, the abundance fitness was -0.985 ± 0.078.

As to R14Q, the abundance fitness is -0.819 ± 0.18.

For L17P, the abundance fitness was -0.974 ± 0.17.

As to L17K, the abundance fitness is -0.286 ± 0.24.

On to L17C, for which the abundance fitness is -0.704 ± 0.12.

L17T: the abundance fitness was -0.272 ± 0.11.

Turning to L17V, the abundance fitness was -0.592 ± 0.11.

For L17Q, the abundance fitness was -0.513 ± 0.1.

In the case of L17N, the abundance fitness was -0.458 ± 0.27.

Turning to L17H, the abundance fitness was -1.06 ± 0.4.

Take S49N: the abundance fitness is -0.065 ± 0.19.

Consider S49D, for which the abundance fitness is -0.106 ± 0.17.

As for S49K, the abundance fitness was found to be 0.069 ± 0.3.

In the case of S49T, the abundance fitness was -0.035 ± 0.12.

Take A71V: the abundance fitness was -0.296 ± 0.19.

Regarding A71S, the abundance fitness was -0.183 ± 0.092.

On to A71Q, for which the abundance fitness was -0.188 ± 0.16.

Take A71E: the abundance fitness was -0.247 ± 0.083.

As to A71H, the abundance fitness was -0.223 ± 0.25.

Regarding S40Q, the abundance fitness is -0.293 ± 0.19.

On to S40A, for which the abundance fitness is -0.203 ± 0.056.

Regarding S40V, the abundance fitness was -0.385 ± 0.076.

Take S40T: the abundance fitness was found to be 0.092 ± 0.1.

On to S40R, for which the abundance fitness was -0.312 ± 0.059.

On to R1S, for which the abundance fitness was -0.235 ± 0.087.

On to R1P, for which the abundance fitness is -0.199 ± 0.33.

On to R1A, for which the abundance fitness turned out to be 0.078 ± 0.093.

Consider A7Q, for which the abundance fitness is -1.01 ± 0.28.

Take A7N: the abundance fitness was -0.907 ± 0.41.

Regarding A7L, the abundance fitness was -0.936 ± 0.19.

A7C: the abundance fitness is -0.358 ± 0.13.

Regarding A7Y, the abundance fitness is -0.537 ± 0.13.

For the variant A7V, the abundance fitness stood at 0.08 ± 0.063.

In the case of L52H, the abundance fitness is -0.729 ± 0.28.

As to L52R, the abundance fitness was -0.883 ± 0.12.

For the variant L52G, the abundance fitness is -0.679 ± 0.12.

Turning to L52A, the abundance fitness is -0.822 ± 0.14.

On to L52F, for which the abundance fitness is -0.682 ± 0.21.

As to L52W, the abundance fitness is -0.952 ± 0.22.

With S42W, the abundance fitness was -0.359 ± 0.12.

Take S42G: the abundance fitness was -0.11 ± 0.068.

With S42N, the abundance fitness is -0.28 ± 0.15.

Regarding S42V, the abundance fitness was -0.113 ± 0.057.

For A27Q, the abundance fitness is 0.068 ± 0.069.

As for A27N, the abundance fitness was -0.323 ± 0.14.

On to A27L, for which the abundance fitness is -0.302 ± 0.034.

As to A27V, the abundance fitness was -0.265 ± 0.092.

Turning to A27D, the abundance fitness is -0.123 ± 0.2.

Take D2S: the abundance fitness is -0.124 ± 0.053.

As to S53G, the abundance fitness was -0.102 ± 0.059.

S53M: the abundance fitness was -0.371 ± 0.23.

In the case of S53D, the abundance fitness was 0.043 ± 0.1.

For K61Q, the abundance fitness was -0.047 ± 0.097.

Consider K61G, for which the abundance fitness is -0.47 ± 0.1.
